Positions count from the first letter of the chain named. Values belong to the molecule of their own block, whether it stands above or below them.
Tests used:
[1] = Phage ELISA of phage binding to hair; parameters: species or system human; settings: phage-displayed peptide, 1×10^11 pfu; A450; relative to HP2-TonB-Gray3 = 100
Experimental: (§1) Phage particles recovered from panning (Example 2) were used to infect E. coli 10GF′ and transformants were purified by colony isolation. Purified phagemid clones were infected with helper phage VCSM13 and phage particles were isolated. Those purified phage clones were assayed for binding to hair by two methods.
Gray hair (200 strands, 1.5 cm long per bundle were blocked with BSA (1 mg/mL) at room temperature (˜21° C.) for 30 min in 1.5 mL microfuge tubes, then washed 3 times with TBS. Phage particles (1×10^11 pfu) were added in TBS plus 0.1% TWEEN®-20 and incubated at room temperature for 1 hr with gentle shaking. The hair was then washed 5 times with TBS plus 0.5% TWEEN®-20. Hair with bound phage was incubated with HRP/Anti-M13 monoclonal conjugate (GE Healthcare Bio-Science Corp, Piscataway, N.J.) at room temperature (˜21° C.) for 1 hr with gentle shaking, then washed 6 times with TBS plus 0.5% TWEEN®-20. IMMUNOPURE® TMB substrate kit (High sensitivity, Pierce, Rockford, Ill.; a division of Thermo Scientific) was used for colorimetric assay. After 15˜20 min development with gentle shaking, the reaction was stopped, and absorbance was determined at 450 nm. The Phage titer and ELISA data were reported relative to the activity observed for the hair-binding domain HP2-TonB-Gray3. (Table 4).

[2] = Phage titer assay of phage binding to hair; parameters: species or system human; settings: phage-displayed peptide; six gray hair strands; relative to HP2-TonB-Gray3 = 100
Experimental: as §1
Six gray hair strands (1.5 cm long) were blocked with BSA (1 mg/mL) at room temperature (˜21° C.) for 30 min in 1.5 mL microfuge tubes, then washed twice with tris buffered saline (TBS). Phage particles were added in TBS plus 0.1% TWEEN®-20 and incubated at room temperature for 1 hour with gentle shaking. The hair was then washed 3 times with TBS plus 0.5% TWEEN®-20, and centrifuged briefly to remove excess liquid. E. coli 10GF′ (1 mL; OD600nm=0.5) was added for 15 min. Aliquots were plated on selective plates and phagemid-containing colonies were counted (Table 4)

Molecule: HB1-(KP)12-IB5A: hair-binding domain, SEQ ID NO: 96 (PSTPPTNVLMLATKGPKPKPKPKPKPKPKPKPKPKPKPKPPATPPELLHGAPRSGS)
ELISA (%) relative to the activity of HP2-TonB-Gray3 [1]: 1%
Phage Titer (%) relative to the activity of HP2-TonB-Gray3 [2]: 5%

Molecule: KF11-[(KP)6GG]2-KF11: hair-binding domain, SEQ ID NO: 101 (PSNTSQLSTGPKPKPKPKPKPKPGGKPKPKPKPKPKPGGPANTSQLSTGS)
ELISA (%) relative to the activity of HP2-TonB-Gray3 [1]: 1%
Phage Titer (%) relative to the activity of HP2-TonB-Gray3 [2]: 1%

Molecule: HP2-(EEAAKK)2-MEA4: hair-binding domain, SEQ ID NO: 76 (PSAQSQLPDKHSGLHERAPQRYGPEEAAKKEEAAKKPAHINKTNPHQGNHHSEKTQRQGS)
ELISA (%) relative to the activity of HP2-TonB-Gray3 [1]: 130%
Phage Titer (%) relative to the activity of HP2-TonB-Gray3 [2]: 330%

Molecule: Gray3-[(KP)6GG]2-KF11: hair-binding domain, SEQ ID NO: 83 (PSHDHKNQKETHQRHAAGPKPKPKPKPKPKPGGKPKPKPKPKPKPGGPANTSQLSTGS)
ELISA (%) relative to the activity of HP2-TonB-Gray3 [1]: 1%
Phage Titer (%) relative to the activity of HP2-TonB-Gray3 [2]: 1%

B1: Gray3-TonB-HP1: hair-binding domain, SEQ ID NO: 98 (peptide)
chain: PSHDHKNQKETHQRHAAGPEPEPEPEPIPEPPKEAPVVIEKPKPKPKPKPKPPAGSCVDTHKADSCVANNGPATGS
ELISA (%) relative to the activity of HP2-TonB-Gray3 [1]: 1%
Phage Titer (%) relative to the activity of HP2-TonB-Gray3 [2]: 1%

B2: Gray3-(EAAAKLL)4-HB1: hair-binding domain, SEQ ID NO: 100 (peptide)
chain: PSHDHKNQKETHQRHAAGPEAAAKLLEAAAKLLEAAAKLLEAAAKLLPATPPTNVLMLATKGS
ELISA (%) relative to the activity of HP2-TonB-Gray3 [1]: 1%
Phage Titer (%) relative to the activity of HP2-TonB-Gray3 [2]: 1%

B5: HP2-TonB-Gray3: hair-binding domain, SEQ ID NO: 85, also found in peptide HC353 (peptide)
chain: PSAQSQLPDKHSGLHERAPQRYGPEPEPEPEPIPEPPKEAPVVIEKPKPKPKPKPKPPAHDHKNQKETHQRHAAGS
ELISA (%) relative to the activity of HP2-TonB-Gray3 [1]: 100%
Phage Titer (%) relative to the activity of HP2-TonB-Gray3 [2]: 100%

B6: HP2-TonB-HP2: hair-binding domain, SEQ ID NO: 91 (peptide)
chain: PSAQSQLPDKHSGLHERAPQRYGPEPEPEPEPIPEPPKEAPVVIEKPKPKPKPKPKPPAAQSQLPDKHSGLHERAPQRYGS
ELISA (%) relative to the activity of HP2-TonB-Gray3 [1]: 55%
Phage Titer (%) relative to the activity of HP2-TonB-Gray3 [2]: 55%

B8: Gray5-[(KP)6GG]2-Gray4A: hair-binding domain, SEQ ID NO: 78 (peptide)
chain: PSTAEIQSSKNPNPHPQRSWTNGPKPKPKPKPKPKPGGKPKPKPKPKPKPGGPAHNHMQERYTAPQHSPSVNGLGS
ELISA (%) relative to the activity of HP2-TonB-Gray3 [1]: 1%
Phage Titer (%) relative to the activity of HP2-TonB-Gray3 [2]: 1%

B9: HP2-(EEAAKK)4-Gray1: hair-binding domain, SEQ ID NO: 73 (peptide)
chain: PSAQSQLPDKHSGLHERAPQRYGPEEAAKKEEAAKKEEAAKKEEAAKKPAGMPAMHWIHPFAGS
ELISA (%) relative to the activity of HP2-TonB-Gray3 [1]: 8%
Phage Titer (%) relative to the activity of HP2-TonB-Gray3 [2]: 40%

B11: HP2-TonB-MEA4: hair-binding domain, SEQ ID NO: 89 (peptide)
chain: PSAQSQLPDKHSGLHERAPQRYGPEPEPEPEPIPEPPKEAPVVIEKPKPKPKPKPKPPAHINKTNPHQGNHHSEKTQRQGS
ELISA (%) relative to the activity of HP2-TonB-Gray3 [1]: 1%
Phage Titer (%) relative to the activity of HP2-TonB-Gray3 [2]: 1%

B12: HP2-(EEAAKK)5-Gray4A: hair-binding domain, SEQ ID NO: 74 (peptide)
chain: PSAQSQLPDKHSGLHERAPQRYGPEEAAKKEEAAKKEEAAKKEEAAKKEEAAKKPAHNHMQERYTAPQHSPSVNGLGS
ELISA (%) relative to the activity of HP2-TonB-Gray3 [1]: 80%
Phage Titer (%) relative to the activity of HP2-TonB-Gray3 [2]: 50%

B16: Gray5-(EAAAKLL)3-MEA4: hair-binding domain, SEQ ID NO: 90 (peptide)
chain: PSTAEIQSSKNPNPHPQRSWTNGPEAAAKLLEAAAKLLEAAAKLLPAHINKTNPHQGNHHSEKTQRQGS
ELISA (%) relative to the activity of HP2-TonB-Gray3 [1]: 115%
Phage Titer (%) relative to the activity of HP2-TonB-Gray3 [2]: 25%

B17: KF11-[(KP)6GG]2-Gray4A: hair-binding domain, SEQ ID NO: 97 (peptide)
chain: PSNTSQLSTGPKPKPKPKPKPKPGGKPKPKPKPKPKPGGPAHNHMQERYTAPQHSPSVNGLGS
ELISA (%) relative to the activity of HP2-TonB-Gray3 [1]: 1%
Phage Titer (%) relative to the activity of HP2-TonB-Gray3 [2]: 1%

Continued, values first:

ELISA (%) relative to the activity of HP2-TonB-Gray3 [1]: 1%
Phage Titer (%) relative to the activity of HP2-TonB-Gray3 [2]: 10%
Molecule: HB1-(KGGGS)4-HP2: hair-binding domain with flexible linker, SEQ ID NO: 95 (PSTPPTNVLMLATKGPKGGGSKGGGSKGGGSKGGGSPAAQSQLPDKHSGLHERAPQRYGS)

ELISA (%) relative to the activity of HP2-TonB-Gray3 [1]: 1%
Phage Titer (%) relative to the activity of HP2-TonB-Gray3 [2]: 1%
Molecule: Gray1-(KP)8-Gray1: hair-binding domain, SEQ ID NO: 77 (PSGMPAMHWIHPFAGPKPKPKPKPKPKPKPKPPAGMPAMHWIHPFAGS)

ELISA (%) relative to the activity of HP2-TonB-Gray3 [1]: 60%
Phage Titer (%) relative to the activity of HP2-TonB-Gray3 [2]: 10%
B3: Gray5-(EAAAKLL)3-Gray3: hair-binding domain, SEQ ID NO: 92 (peptide)
chain: PSTAEIQSSKNPNPHPQRSWTNGPEAAAKLLEAAAKLLEAAAKLLPAHDHKNQKETHQRHAAGS

ELISA (%) relative to the activity of HP2-TonB-Gray3 [1]: 170%
Phage Titer (%) relative to the activity of HP2-TonB-Gray3 [2]: 80%
B4: HP2-(EEAAKK)4-MEA4: hair-binding domain, SEQ ID NO: 75 (peptide)
chain: PSAQSQLPDKHSGLHERAPQRYGPEEAAKKEEAAKKEEAAKKEEAAKKPAHINKTNPHQGNHHSEKTQRQGS

ELISA (%) relative to the activity of HP2-TonB-Gray3 [1]: 1%
Phage Titer (%) relative to the activity of HP2-TonB-Gray3 [2]: 1%
B7: Gray5-[(KP)6GG]2-HP2: hair-binding domain, SEQ ID NO: 99 (peptide)
chain: PSTAEIQSSKNPNPHPQRSWTNGPKPKPKPKPKPKPGGKPKPKPKPKPKPGGPAAQSQLPDKHSGLHERAPQRYGS

ELISA (%) relative to the activity of HP2-TonB-Gray3 [1]: 1%
Phage Titer (%) relative to the activity of HP2-TonB-Gray3 [2]: 1%
B10: MEA4-[(KP)6GG]2-MEA4: hair-binding domain, SEQ ID NO: 102 (peptide)
chain: PSHINKTNPHQGNHHSEKTQRQGPKPKPKPKPKPKPGGKPKPKPKPKPKPGGPAHINKTNPHQGNHHSEKTQRQGS

ELISA (%) relative to the activity of HP2-TonB-Gray3 [1]: 100%
Phage Titer (%) relative to the activity of HP2-TonB-Gray3 [2]: 50%
B13: HP2-TonB-IB5A: hair-binding domain, SEQ ID NO: 88 (peptide)
chain: PSAQSQLPDKHSGLHERAPQRYGPEPEPEPEPIPEPPKEAPVVIEKPKPKPKPKPKPPATPPELLHGAPRSGS

ELISA (%) relative to the activity of HP2-TonB-Gray3 [1]: 1%
Phage Titer (%) relative to the activity of HP2-TonB-Gray3 [2]: 30%
B14: HP2-TonB-HB1: hair-binding domain, SEQ ID NO: 93 (peptide)
chain: B13 chain with E63T, L64N, L65V, H66L, G67M, A68L, P69A, R70T, S71K

ELISA (%) relative to the activity of HP2-TonB-Gray3 [1]: 20%
Phage Titer (%) relative to the activity of HP2-TonB-Gray3 [2]: 10%
B15: MEA4-(EAAAKLL)3-IB5A: hair-binding domain, SEQ ID NO: 94 (peptide)
chain: PSHINKTNPHQGNHHSEKTQRQGPEAAAKLLEAAAKLLEAAAKLLPATPPELLHGAPRSGS
